assay: soluble on expression in E. coli; label from the status in PepcDB or PDB records

| Sequence | soluble on expression in E. coli |
| --- | --- |
| MGSDKIHHHHHHMFSKSLEALHHAKRYRKRELFDPLLKDYASNDYLGLSVKKDLLQNAFNKLQSFVSHSPKASMLVNGYHPLHAELEERLANLLGFESALLVGSGFLGNLALIDTLLVKNALLFMDAHYHASGIFSTKIKPNQVIFFSHNDIKDLKQKLFNAPKNKIKFIAIEGVYSMDASVAPYDFYAIIQEIPNAFLIVDEAHSFGTIGENLLGFLEYYRIKEKDKIIKLSTFSKALASYGACILAPLQTIEFLTNRAKSVIYTTALSLLDTALTLAHLEYFIVQKQELKNELSKHQQIIFETLGIRTLAGFFTLEFESNPALLNAHHFLKEKGFLVGAIRPPTVSKPLLRVSLSLKNSLEDTKELANTLLNYSKIQSSFKSG | not soluble |
| MGHHHHHHSHMVKFKVIALAALMGISGMAAQANELPDGPHIVTSGTASVDAVPDIATLAIEVNVAAKDAATAKKQADERVAQYISFLELNQIAKKDISSANLRTQPDYDYQDGKSILKGYRAVRTVEVTLRQLDKLNSLLDGALKAGLNEIRSVSLGVAQPDAYKDKARKAAIDNAIHQAQELANGFHRKLGPVYSVRYHVSNYQPSPMVRMMKADAAPVSAQETYEQAAIQFDDQVDVVFQLEPVDQQPAKTPAAQ | soluble |
| MKRLLLSAAILSSMALFNVNAQELKTSADMKGSFKKNVVLEVFTAEWCGYCPGGKERIAKAIEMLDDEYKERVFQTFVHYNDGISKKWPRVGQLFIALDQTLGIPGFPTFSVCRMEKKGENLSIGAPIAIKNKIMKGFGDGTAPAEVNLKLTKGATPEDVCTATFTGKVDADLIGKPLMLTAYVLKNNMKPINPQNGAGDGYLHQHTVLMILSTDVKGDALNIAADGSFTIKKEFKLDGFEIKDTDVLAFVHHPMSNAENHSIINAGQESLDKAEPTATEQIVATPSVKAYVQNGKIVVEEEYSKMEVFNATGQLVKNESLVPGVYVVRITANGVMYFLKVLVPMAGDPLEHHHHHH | soluble |
| SNYLDQMEEYDKVEEISRKHKHNCFCIQEVVSGLRQPVGALHSGDGSQRLFILEKEGYVKILTPEGEIFKEPYLDIHKLVQSGIKGGDERGLLSLAFHPNYKKNGKLYVSYTTNQERWAIGPHDHILRVVEYTVSRKNPHQVDLRTARVFLEVAELHRKHLGGQLLFGPDGFLYIILGDGMITLDDMEEMDGLSDFTGSVLRLDVDTDMCNVPYSIPRSNPHFNSTNQPPEVFAHGLHDPGRCAVDRHPTDININLTILCSDSNGKNRSSARILQIIKGKDYESEPSLLEFKPFSNGPLVGGFVYRGCQSERLYGSYVFGDRNGNFLTLQQSPVTKQWQEKPLCLGTSGSCRGYFSGHILGFGEDELGEVYILSSSKSMTQTHNGKLYKIVDPKRPLMPEECRATVQPAQTLTSECSRLCRNGYCTPTGKCCCSPGWEGDFCRTAKCEPACRHGGVCVRPNKCLCKKGYLGPQCEHHHHHH | soluble |
| MSSNAQVRPPLPPFTRESAIEKIRLAEDGWNSRDPERVSLAYTLDTQWRNRAEFAHNREEAKAFLTRKWAKELDYRLIKELWAFTDNRIAVRYAYEWHDDSGNWFRSYGNENWEFDEQGLMARRFACINDMPIKAQERKFHWPLGRRPDDHPGLSELGLLEHHHHHH | soluble |
| MSPFGKIAIVGSGLVGSSWATIFASSGYEVQMYDISEKQLQVALENVEKNLRKLDEHGLQRGNLSADEALLRVSTTTSLNEVMKNAIYMQESALEDLNFRIQFYKVIDEIADPTTILASSTSTIPASKFTDGLINKERCLIVHPVNPPLFLPLTELVPAPWTSQDTVDRAAEIMRSVKQEPVKLKKEVLGFVVNRLQFALLAETWRLVADGVIGVNDVDAVMSAGLGPRYAFNGTCETVHLNAFGVRDYFKRYAAGITAVLKDMGPIPDFTDEKVINKLEEELEPKMSTLNIRKHQAEREEKLVEIAKLKKDLNL | not soluble |
| MSLYYINLKQERILKFIEKFGVARIEHMKRILNIKDIDNQFKILIRQRKVKLVFNDICVLDGKKELNIKMIKALDLYSYLHLNNGGIPIEWCMPQDFPFTIAFFRNSKVFDVAIINEGEETIYSSAINRGVSERVIVVLSEENQKENIKINKQIKCCTIEDGVLNFEGHHHHHH | not soluble |
| MGSDKIHHHHHHMIKIGAHMPISKGFDRVPQDTVNIGGNSFQIFPHNARSWSAKLPSDEAATKFKREMKKHGIDWENAFCHSGYLINLASPKDDIWQKSVELLKKEVEICRKLGIRYLNIHPGSHLGTGEEEGIDRIVRGLNEVLNNTEGVVILLENVSQKGGNIGYKLEQLKKIRDLVDQRDRVAITYDTCHGFDSGYDITKKEGVEALLNEIESLFGLERLKMIHLNDSKYPLGAAKDRHERIGSGFIGEEGFAVFFSFKEIQEVPWILETPGGNEEHAEDIKKVFEIIEKFGIEVD | not soluble |
| MLKFNEEQQIKDIRGALALRSDVEKVVDQVWTKGFDAVYYIGIGGTYASAMQAVTYANGKSNLPIYVQHAAEYYTTGNKRLTEKSFVILSSVTGTTQEVVQAVQEIKKVGATLFGFIDAKDSLLADLCDYVVTYPAPGTEQIKFFMVADRLMQKNNEFTDYENYYQELEEYLPTGLAEAEKSADAFGLAFAEKHRHDSIHYFIGAGNQWGAVYSYAMCYWEEQSWLRSKSIHAAEFLHGTLEIVDETTPVTLFIGEDEQRPLAERVAKLLPKICANYTIIDSKAYELPGISEKYRGRVVSFLLMHAVTQRIDAHVEKLNCHPLEIRRYYRQFDY | not soluble |
| MNTFKETLFSLKKSNYLLNESAQILNDCVVNNNEIDERLRNSIKFALGIINLASYCLKNEQEQLDHELNHGNEAPWEFSFNEAEQLIECTVKNNFGNEKLVDLIFHIGDAMETYRTTNIKFRVPKSYYDAKQQIRKVIKN | soluble |
| MTDYDVLRVFCAPNGGYGNELGVVRDGSVLPEPERRQELAAKLGFSETVFVDDPERGVVDIYTPTLRLPFAGHPCVGTAWLLDVPELVTRAGVVGARLDGEFSWIEARPEWAPPRTLRQYAAVAEVDDLAVPPKGEWVYAWAWEDEAAGRVRARAFPGRDDGIDEDEATGAAALLLTGRLGRALNITQGVGSQILTAPQPEGWVEIGGRVRLERLEHHHHHH | not soluble |
| MSTEQPERADRLLAAAQRRGHERVEARDFGEAILAEVHCPRYLDFLKNGYAQWRALPGASQEITPHVHPPREESGYPVSIIGRAGFHIADTSSPMGPHTWEAALAASHSACTAAQLVIEGAPAAYSLSRPPGHHATRDRAGGFCFLNHTAVAAQWLRHHVARVAILDVDVHHGNGTQDIFYERDDVLHVSLHADPAYFYPFFTGYAQETGRGIGAGCNLNLPLPIGTDDEAFLAALRIACRRVLDFKPDVVVVALGLDTYEGDPLNAFRITTPGFARIGQAIAGLALPTVLVQEGGYLSDELGENLATFLDGFCQHLEHHHHHH | not soluble |
| MGAEGRLYWDEGEGEGPYRLDRFRLLPAEGGFRLLWQGKGELPWPWARVRLRLFGKRLLRAHVEGEAHAAEEGGVLLPPFREALLEVEGLEHHHHHH | not soluble |
| MGSDKIHHHHHHMSRNRPAPSGDQFDLFLPYVADMPMRDQREMMERPFFSLAKSKRVKPIDYTSPDGKLWVHVSGNPDYGMATIWDADILIYCASVLADMARRGVNDVPRKLHLMPYDLLRAIGRPTTGRAYELLGQALDRLVATTIKTNIRAENRREATFSWLDGWTQLVDEKTERSRGMTIELSNWFWEGVMMKGGVLSIDRAYFDITGGRERWLYKVARKHAGGAGEEGFAISMPVLFEKSGAEGEYRRFKFEILKLAEKNALPGYGLSVETARGGEPMLRMRRVDGKDGADRALPEAGRQGAEARTVASTAPDVSPGKHSSGASETVDVRALIRKTVAGVSDAATRGFMTDETIRHLRETCPGWDLHALHAEFESWVNGDSARLPANWQKAFIGWVKRHHEKNGHALRR | not soluble |
| MGSSHHHHHHSSGRENLYFQGHMVIIDNKHYLFIQKLGEGGFSYVDLVEGLHDGHFYALKRILCHEQQDREEAQREADMHRLFNHPNILRLVAYCLRERGAKHEAWLLLPFFKRGTLWNEIERLKDKGNFLTEDQILWLLLGICRGLEAIHAKGYAHRDLKPTNILLGDEGQPVLMDLGSMNQACIHVEGSRQALTLQDWAAQRCTISYRAPELFSVQSHCVIDERTDVWSLGCVLYAMMFGEGPYDMVFQKGDSVALAVQNQLSIPQSPRHSSALWQLLNSMMTVDPHQRPHIPLLLSQLEALQPPAPGQHTTQIL | soluble |
| MGVNGAAGRSPGPKAVKPASVAIAVDYAMLTHEQAAVCAMRHERIDINPEVMGGKPVVRGTRIPVEMILRKLGAGLSTAEIIADHPRLTADDILAVQTFAADYLADQDVIFG | not soluble |
| MALEKEEEASQNGAFCVLDGLYCEEETGFVEDDLDDDGDLDFLEKSDESVVKFQFLPLLDMFLWDDDEILSLISKENETNPCFGEQILDGFLVSCRKEALDWVLRVKSHYGFTSLTAILAVNYFDRFMTSIKLQTDKPWMSQLVAVASLSLAAKVEEIQVPLLLDLQVEEARYLFEAKTIQRMELLILSTLQWRMHPVTPISFFDHIIRRFGSKWHQQLDFCRKCERLLISVIADTRFMRYFPSVLATAIMILVFEELKPCDEVEYQSQITTLLKVNQEKVNECYELLLEHNPSKKRMMNLVDQDSPSGVLDFDDSSNSSWNVSTTASVSSSSSSPEPLLKRRRVQEQQMRLPSINRMFLDVLSSPR | soluble |
| MSKKFFLSLGLVALLFSNSQAIDENLIKAAQAEGRVNSLAMPDTWANWKDTWADLKNLYDIEHSDTDMSSAQEIAKFKTEKKNASGDIGDVGASFGEIAVKQGVAQPFKTSYWDQIPTWAKDKDGNWLLAYTGTIAFIVNKDVVKDIPKTWQDLLKGNYKITVGDVSVAAQAVSAVLAANYALGGDEKDLSPALAFFNTLAKQGRLVNNDVSIANLEKGEVEVGLVWDFNGLGYRDKVGKDRYEVLIPADGSVISGYTTIINKYAKHPNAAKLAREFILSDKGQINLAKGYARPIRIDHITLPDDIKAKLLPSEQYKNARAIKDQKAWEKSAKELPQLWQEKVIVDMK | not soluble |
| MSSFGHRAFFSCCLLLEGETLHSIKLRKEATYQPQSGWPVRWPIRYPRALPLASHVHPYHMIVKLPHPRTQPRLFLWLSLHWTGIPFLGKPGIGRNRVKSKQFSHFQQSKIKTTMRKKTTNRKQKAERCQYRLVTA | not soluble |
| MNPLKKIKDWIAEGKAGWHLAGGRSSLKQGKYKEALKEFRKALKARPNNPEILHYNAITLLKLKRPEKALECYEKILKNNPKLAEAWNNKGLVLKELGRYDEALECYEKALKINPKYAGAWNNKALVLKELGRYDEALECYEKALQINPKLADAWYNKGSVLIYLKKYKKALKCFEKAIELNPKNYRAWGTKGITLHNLKIYEEALKCYDKVLQLNPQDDKAWNNKGLVFNELGRYDESLECYEKALQINPKLAEAWNNKGVVLSELGRYEEALECYEKALEIDPEDDKTWNNKGLVLEELGKYKDALECFQKALEINPEFADAWKWKGIILEDLKKPEESLKCYKKALKLNPPKQNTMVHARKNTTKTRQTQRSTKML | not soluble |
| MSLNYNAPHRHAVIELSQSAVVHNLKVIKENTHAKEIMAVLKANAFSHGLPEMASLSITAGATRFGMAMLDEALILRDLGYIQPIDVLGLTDPRYARLAAERNITLAFSTKESIKAAAEQLAGTGLTLKVSLPVDTGLNRIGFKSREDLVAAIQEVSAQDTLIFQSMWTHFATADTPNVDYVDFQISEWQRLTHDLPVEPNEKHFANTGIATWYPEKINTDIVRLGIGLFGINGSVPIMSMPFELIPALSLKAKVVNSKPLKKGDAVGYGAEYHAPNDGYLITIPIGHSDGYPFNGSGMRALVADGQIGHIVGGVAMDQSMILVTNPVAVGTTVTLIGRVGDQSITMQDLAEHTQSSIVALMNDFAPRLQRIIVSEGHHHHHH | not soluble |

Source: the DeepSol protein solubility set
